Tests used:
hPDGFRb.mmh [1] = molecular target: T1, hPDGFRb.mmh (human, UniProt P09619 33-531); experiment: Octet BLI cross-competition, 25 C; hPDGFRb.mmh on anti-Penta-His tips pre-saturated with mAb-1 H4H3310N (row 9)
T1 construct: Soluble monomeric construct; also called soluble human PDGFR-beta.mmh
Experimental: (§1) A cross-competition assay was conducted to assess the ability of select antibodies to compete with one another for binding to human PDGFR-beta. […] Each PDGFR-beta.mmh-coated sensor tip was saturated for 5 min with a first anti-PDGFR-beta antibody (Mab #1; 50 μg/mL). Next, each sensor tip was saturated with a solution of a second anti-PDGFR-beta antibody (Mab #2). The real time response of Mab #2 binding to PDGR-beta.mmh pre-complexed with Mab #1 was then monitored. All assays were performed at 25° C. with a flow rate of 1000 rpm on an Octet RED384 biosensor in Octet HBST buffer according to manufacturer's instructions (ForteBio Corp., Menlo Park, Calif.). Results are illustrated in FIG. 2.

hPDGFRb.mmh [2] = molecular target: T1, hPDGFRb.mmh; experiment: Octet BLI cross-competition, 25 C; hPDGFRb.mmh on anti-Penta-His tips pre-saturated with mAb-1 H4H3305N (row 8)
Experimental: as §1

hPDGFRb.mmh [3] = molecular target: T1, hPDGFRb.mmh; experiment: Octet BLI cross-competition, 25 C; hPDGFRb.mmh on anti-Penta-His tips pre-saturated with mAb-1 H4H3107S (row 7)
Experimental: as §1

hPDGFRb.mmh [4] = molecular target: T1, hPDGFRb.mmh; experiment: blocking ELISA, biot-hPDGFRb.mmh to coated PDGF-BB
human PDGFRb.hFc [5] = molecular target: T2, human PDGFRb.hFc (human); experiment: SPR, mAb captured, 37 C
T2 construct: Soluble dimeric construct with human Fc; also called hPDGFRb.hFc
Experimental: (§2) Antibodies, expressed as either mouse Fc (prefix H1M; H2M) or human Fc (prefix H4H), were captured on their respective anti-Fc sensor surfaces (Mab capture format). […] Kinetic association (kₐ) and dissociation (kd) rate constants were determined by processing and fitting the data to a 1:1 binding model using Scrubber 2.0 curve fitting software.

hPDGFRb.mmh [6] = molecular target: T1, hPDGFRb.mmh; experiment: SPR, mAb captured, 37 C
Experimental: as §2

[7] = molecular target: T3, Macaca fascicularis PDGFRb.mmh (Macaca fascicularis); experiment: SPR, mAb captured, 37 C
T3 construct: Soluble monomeric construct; also called mfPDGFRb.mmh
T3 chain: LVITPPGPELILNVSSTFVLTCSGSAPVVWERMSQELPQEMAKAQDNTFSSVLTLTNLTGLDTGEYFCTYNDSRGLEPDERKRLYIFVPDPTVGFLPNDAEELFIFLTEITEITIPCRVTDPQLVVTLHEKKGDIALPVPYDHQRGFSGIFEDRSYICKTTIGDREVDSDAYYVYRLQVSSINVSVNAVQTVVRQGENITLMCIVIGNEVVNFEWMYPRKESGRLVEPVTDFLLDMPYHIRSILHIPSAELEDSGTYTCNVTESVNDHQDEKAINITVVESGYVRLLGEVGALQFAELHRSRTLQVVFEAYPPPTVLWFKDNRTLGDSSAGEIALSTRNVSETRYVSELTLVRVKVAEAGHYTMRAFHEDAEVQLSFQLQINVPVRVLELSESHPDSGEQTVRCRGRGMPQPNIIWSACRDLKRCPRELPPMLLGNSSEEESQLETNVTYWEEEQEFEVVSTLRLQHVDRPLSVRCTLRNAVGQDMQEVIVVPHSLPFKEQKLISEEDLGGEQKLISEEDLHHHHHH
Experimental: as §2

[8] = molecular target: T4, full length human PDGFR-beta on HEK293 cells (human, UniProt P09619 33-1106); experiment: cell-based or functional assay
[9] = molecular target: T4, full length human PDGFR-beta on HEK293 …; experiment: cell-based or functional assay; remark: listed apart in the source
hPDGFRb.mmh [10] = molecular target: T1, hPDGFRb.mmh; experiment: Octet BLI cross-competition, 25 C; hPDGFRb.mmh on anti-Penta-His tips pre-saturated with mAb-1 H4H3103S (row 4)
Experimental: as §1

hPDGFRb.mmh [11] = molecular target: T1, hPDGFRb.mmh; experiment: Octet BLI cross-competition, 25 C; hPDGFRb.mmh on anti-Penta-His tips pre-saturated with mAb-1 H4H3099S (row 6)
Experimental: as §1

human PDGFRb.hFc [12] = molecular target: T2, human PDGFRb.hFc; experiment: SPR, mAb captured, 25 C
Experimental: as §2

hPDGFRb.mmh [13] = molecular target: T1, hPDGFRb.mmh; experiment: SPR, mAb captured, 25 C
Experimental: as §2

[14] = molecular target: T3, Macaca fascicularis PDGFRb.mmh; experiment: SPR, mAb captured, 25 C
Experimental: as §2

hPDGFRb.mmh [15] = molecular target: T1, hPDGFRb.mmh; experiment: Octet BLI cross-competition, 25 C; hPDGFRb.mmh on anti-Penta-His tips pre-saturated with mAb-1 H4H3094P (row 5)
Experimental: as §1

hPDGFRb.mmh [16] = molecular target: T1, hPDGFRb.mmh; experiment: Octet BLI cross-competition, 25 C; hPDGFRb.mmh on anti-Penta-His tips pre-saturated with mAb-1 H4H3374N (row 3)
Experimental: as §1

hPDGFRb.mmh [17] = molecular target: T1, hPDGFRb.mmh; experiment: Octet BLI cross-competition, 25 C; hPDGFRb.mmh on anti-Penta-His tips pre-saturated with mAb-1 H4H3365N (row 2)
Experimental: as §1

hPDGFRb.mmh [18] = molecular target: T1, hPDGFRb.mmh; experiment: Octet BLI cross-competition, 25 C; hPDGFRb.mmh on anti-Penta-His tips pre-saturated with mAb-1 Control I (row 1)
Experimental: as §1

B1: H4H3365N (antibody, human IgG4, V domains shown)
VH: EVQLVESGGGLVQPGRSLRLSCAASGFTFDDFAMHWVRQVPGKGLEWVSGISWSSGTIGYVGSVKGRFTISRDNAKNSLYLQMNSLRAEDTAMYFCTKDKAAFHDAFDIWGQGTMVTVSS
VL: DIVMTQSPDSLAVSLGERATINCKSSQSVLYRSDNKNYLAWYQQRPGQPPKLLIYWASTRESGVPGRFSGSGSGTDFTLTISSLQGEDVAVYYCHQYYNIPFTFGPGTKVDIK
notes: human IgG4 Fc (H4H prefix)
Response of mAb-2 Binding to hPDGFRβ.mmh Pre-Complexed with mAb-1 (nm) (hPDGFRb.mmh [1]): 0.28 nm | Response of mAb-2 Binding to hPDGFRβ.mmh Pre-Complexed with mAb-1 (nm) (hPDGFRb.mmh [2]): 0.28 nm | Response of mAb-2 Binding to hPDGFRβ.mmh Pre-Complexed with mAb-1 (nm) (hPDGFRb.mmh [3]): 0.26 nm | % Maximum Blocking (hPDGFRb.mmh [4]): 87% | IC50 (hPDGFRb.mmh [4]): 0.37 nM | Kd (human PDGFRb.hFc [5]): 1.05 nM | koff (human PDGFRb.hFc [5]): 0.000264 s⁻¹ | kon (human PDGFRb.hFc [5]): 250000 M⁻¹ s⁻¹ | t1/2 (human PDGFRb.hFc [5]): 44 min | Kd (hPDGFRb.mmh [6]): 5.38 nM | koff (hPDGFRb.mmh [6]): 0.00102 s⁻¹ | kon (hPDGFRb.mmh [6]): 190000 M⁻¹ s⁻¹ | t1/2 (hPDGFRb.mmh [6]): 11 min | Kd [7]: 5.06 nM | koff [7]: 0.00101 s⁻¹ | kon [7]: 200000 M⁻¹ s⁻¹ | t1/2 [7]: 11 min | IC50, blocking PDGF-BB (250 pM) activation, SRE-luciferase [8]: 2.3e-10 M | IC50, blocking PDGF-DD (400 pM) activation, SRE-luciferase [8]: 3.7e-10 M | Percent Internalization (Relative to Control I) [9]: 65% | Response of mAb-2 Binding to hPDGFRβ.mmh Pre-Complexed with mAb-1 (nm) (hPDGFRb.mmh [10]): 0.01 nm | Response of mAb-2 Binding to hPDGFRβ.mmh Pre-Complexed with mAb-1 (nm) (hPDGFRb.mmh [11]): 0.29 nm | Kd (human PDGFRb.hFc [12]): 0.244 nM | koff (human PDGFRb.hFc [12]): 4.55e-05 s⁻¹ | kon (human PDGFRb.hFc [12]): 184000 M⁻¹ s⁻¹ | t1/2 (human PDGFRb.hFc [12]): 254 min | Kd (hPDGFRb.mmh [13]): 1.66 nM | koff (hPDGFRb.mmh [13]): 0.000142 s⁻¹ | kon (hPDGFRb.mmh [13]): 85300 M⁻¹ s⁻¹ | t1/2 (hPDGFRb.mmh [13]): 81 min | Kd [14]: 1.7 nM | koff [14]: 0.00015 s⁻¹ | kon [14]: 88300 M⁻¹ s⁻¹ | t1/2 [14]: 77 min | Response of mAb-2 Binding to hPDGFRβ.mmh Pre-Complexed with mAb-1 (nm) (hPDGFRb.mmh [15]): 0 nm | Response of mAb-2 Binding to hPDGFRβ.mmh Pre-Complexed with mAb-1 (nm) (hPDGFRb.mmh [16]): 0.01 nm

B2: H4H3103S (antibody, human IgG4, V domains shown)
VH: EVQLLQSGGGLVQPGGSLRLSCAASGFTFSHYWMSWVRQGPGKGLEWVATIKKDGSESYYVDSVRGRFTISRDNAKNSLYLQMNSLRTEDTAVYYCARDIVTPNVGYYFGMDVWGQGTTVTVSS
VL: DIQMTQSPSTLSASVGDRVTITCRASQSISSWLSWYQQKPGKAPKLLIYMASTLESGVPSRFSGSGSGTDFTLTITSLQPDDFATYYCQQSNSYSRTFGHGTKLEIK
notes: human IgG4 Fc (H4H prefix)
Response of mAb-2 Binding to hPDGFRβ.mmh Pre-Complexed with mAb-1 (nm) (hPDGFRb.mmh [1]): 0.25 nm | Response of mAb-2 Binding to hPDGFRβ.mmh Pre-Complexed with mAb-1 (nm) (hPDGFRb.mmh [17]): 0.02 nm | Response of mAb-2 Binding to hPDGFRβ.mmh Pre-Complexed with mAb-1 (nm) (hPDGFRb.mmh [2]): 0.26 nm | Response of mAb-2 Binding to hPDGFRβ.mmh Pre-Complexed with mAb-1 (nm) (hPDGFRb.mmh [3]): 0.24 nm | % Maximum Blocking (hPDGFRb.mmh [4]): 90% | IC50 (hPDGFRb.mmh [4]): 0.24 nM | Response of mAb-2 Binding to hPDGFRβ.mmh Pre-Complexed with mAb-1 (nm) (hPDGFRb.mmh [18]): -0.01 nm | Kd (human PDGFRb.hFc [5]): 0.405 nM | koff (human PDGFRb.hFc [5]): 0.000306 s⁻¹ | kon (human PDGFRb.hFc [5]): 757000 M⁻¹ s⁻¹ | t1/2 (human PDGFRb.hFc [5]): 38 min | Kd (hPDGFRb.mmh [6]): 10.1 nM | koff (hPDGFRb.mmh [6]): 0.00497 s⁻¹ | kon (hPDGFRb.mmh [6]): 492000 M⁻¹ s⁻¹ | t1/2 (hPDGFRb.mmh [6]): 2 min | Kd [7]: 10.2 nM | koff [7]: 0.00556 s⁻¹ | kon [7]: 544000 M⁻¹ s⁻¹ | t1/2 [7]: 2 min | IC50, blocking PDGF-BB (250 pM) activation, SRE-luciferase [8]: 2e-10 M | IC50, blocking PDGF-DD (400 pM) activation, SRE-luciferase [8]: 2.6e-10 M | Percent Internalization (Relative to Control I) [9]: 87% | Response of mAb-2 Binding to hPDGFRβ.mmh Pre-Complexed with mAb-1 (nm) (hPDGFRb.mmh [11]): 0.26 nm | Kd (human PDGFRb.hFc [12]): 0.264 nM | koff (human PDGFRb.hFc [12]): 0.000164 s⁻¹ | kon (human PDGFRb.hFc [12]): 621000 M⁻¹ s⁻¹ | t1/2 (human PDGFRb.hFc [12]): 70 min | Kd (hPDGFRb.mmh [13]): 3.13 nM | koff (hPDGFRb.mmh [13]): 0.00105 s⁻¹ | kon (hPDGFRb.mmh [13]): 335000 M⁻¹ s⁻¹ | t1/2 (hPDGFRb.mmh [13]): 11 min | Kd [14]: 3.24 nM | koff [14]: 0.00116 s⁻¹ | kon [14]: 359000 M⁻¹ s⁻¹ | t1/2 [14]: 10 min | Response of mAb-2 Binding to hPDGFRβ.mmh Pre-Complexed with mAb-1 (nm) (hPDGFRb.mmh [15]): 0 nm | Response of mAb-2 Binding to hPDGFRβ.mmh Pre-Complexed with mAb-1 (nm) (hPDGFRb.mmh [16]): 0.01 nm
